Numbering of substitutions follows the chain as printed. Names and notes keep the numbering of the source.
B1: variant CD80 IgV-Fc H18Y/E35D/M47L/A71G/A91S (Fc fusion)
chain: VIHVTKEVKEVATLSCGYNVSVEELAQTRIYWQKDKKMVLTMMSGDLNIWPEYKNRTIFDITNNLSIVILGLRPSDEGTYECVVLKYEKDSFKREHLAEVTLSVKAD
B2: variant CD80 IgV-Fc E35D/M47V (Fc fusion)
chain: B1 chain with Y18H, L47V, G71A, S91A
B3: variant CD80 IgV-Fc E35D/M47L/A71G/L85M (Fc fusion)
chain: B1 chain with Y18H, L85M, S91A
B4: variant CD80 IgV-Fc E35D/D46E/M47I (Fc fusion)
chain: B1 chain with Y18H, D46E, L47I, G71A, S91A
B5: variant CD80 IgV-Fc Q27H/E35D/M47I (Fc fusion)
chain: B1 chain with Y18H, Q27H, L47I, G71A, S91A
B6: variant CD80 IgV-Fc E35D/D46E/L85M (Fc fusion)
chain: B1 chain with Y18H, D46E, L47M, G71A, L85M, S91A
B7: variant CD80 IgV-Fc E35D/D46E (Fc fusion)
chain: B1 chain with Y18H, D46E, L47M, G71A, S91A
B8: variant CD80 IgV-Fc Q27L/E35D/M47V/I61V/L85M (Fc fusion)
chain: B1 chain with Y18H, Q27L, L47V, I61V, G71A, L85M, S91A
B9: variant CD80 IgV-Fc M47V (Fc fusion)
chain: B1 chain with Y18H, D35E, L47V, G71A, S91A
B10: variant CD80 IgV-Fc E35D/K89N (Fc fusion)
chain: B1 chain with Y18H, L47M, G71A, K89N, S91A
B11: variant CD80 IgV-Fc M47V/V68M (Fc fusion)
chain: B1 chain with Y18H, D35E, L47V, V68M, G71A, S91A
B12: variant CD80 IgV-Fc E35D/M47V/K89N (Fc fusion)
chain: B1 chain with Y18H, L47V, G71A, K89N, S91A
B13: variant CD80 IgV-Fc M47V/N48K/V68M (Fc fusion)
chain: B1 chain with Y18H, D35E, L47V, N48K, V68M, G71A, S91A
B14: variant CD80 IgV-Fc E35D/D46V/M47V/N48K/V68M (Fc fusion)
chain: B1 chain with Y18H, D46V, L47V, N48K, V68M, G71A, S91A
B15: variant CD80 IgV-Fc E35D/D46V/M47V/V68M/L85Q (Fc fusion)
chain: B1 chain with Y18H, D46V, L47V, V68M, G71A, L85Q, S91A
B16: variant CD80 IgV-Fc E35D/M47V/N48K/V68M/L85Q (Fc fusion)
chain: B1 chain with Y18H, L47V, N48K, V68M, G71A, L85Q, S91A
B17: variant CD80 IgV-Fc E35D/M47V/V68M/L85Q/K89N (Fc fusion)
chain: B1 chain with Y18H, L47V, V68M, G71A, L85Q, K89N, S91A

Assays:
[1] = biological target: CD28, endogenously expressed on Jurkat/IL2 reporter cells (human) (UniProt P10747); assay: flow cytometry on Jurkat/IL2 reporter cells (endogenous CD28), 33.3 nM Fc fusion, PE anti-human Fc
[2] = biological target: human PD-L1 (huPD-L1), on stably transduced CHO cells (human) (UniProt Q9NZQ7); assay: flow cytometry on CHO/huPD-L1 cells; MFI relative to WT CD80 (CD80 WT IgV-Fc = 1.0)
[3] = biological target: CD28, endogenously expressed on Jurkat/IL2 reporter cells (human) (UniProt P10747); assay: flow cytometry on Jurkat (CD28) cells; MFI relative to WT CD80 (CD80 WT IgV-Fc = 1.0)
[4] = biological target: human CTLA-4 (huCTLA4), on stably transduced CHO cells (human) (UniProt P16410); assay: flow cytometry on CHO cells stably expressing huCTLA4, 33.3 nM Fc fusion, PE anti-human Fc
[5] = biological target: human CTLA-4 (huCTLA4), on stably transduced CHO cells (human) (UniProt P16410); assay: flow cytometry on CHO/huCTLA4 cells; MFI relative to WT CD80 (CD80 WT IgV-Fc = 1.0)
[6] = biological target: human PD-L1 (huPD-L1), on stably transduced CHO cells (human) (UniProt Q9NZQ7); assay: flow cytometry; ratio of MFI on CHO/huPD-L1 cells to MFI on Jurkat (CD28) cells
[7] = biological target: human PD-L1 (huPD-L1), on stably transduced CHO cells (human) (UniProt Q9NZQ7); assay: flow cytometry on CHO cells stably expressing huPD-L1, 33.3 nM Fc fusion, PE anti-human Fc
human CTLA-4 (human) [8] = biological target: human CTLA-4 (human) (UniProt P16410); assay: flow cytometry, CHO/huCTLA-4 cells; vs WT CD80 ECD-Fc (Abcam)
human CTLA-4 (human) [9] = biological target: human CTLA-4 (human) (UniProt P16410); assay: flow cytometry, CHO cells expressing huCTLA-4
CD28 (human) [10] = biological target: CD28 (human) (UniProt P10747)
human PD-L1 (human) [11] = biological target: human PD-L1 (human) (UniProt Q9NZQ7)
Target sequence in this assay (Q9NZQ7 19-290 limits assumed): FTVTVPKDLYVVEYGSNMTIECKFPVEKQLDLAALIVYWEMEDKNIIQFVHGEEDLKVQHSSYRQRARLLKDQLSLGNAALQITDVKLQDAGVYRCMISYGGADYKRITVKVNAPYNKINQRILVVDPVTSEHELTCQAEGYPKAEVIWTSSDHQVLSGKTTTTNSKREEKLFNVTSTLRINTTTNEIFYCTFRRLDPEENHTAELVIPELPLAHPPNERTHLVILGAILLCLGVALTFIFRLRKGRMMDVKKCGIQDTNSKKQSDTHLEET

CD28 (human) [12] = biological target: CD28 (human) (UniProt P10747); assay: flow cytometry, Jurkat/IL2 reporter cells (CD28)
human PD-L1 (human) [13] = biological target: human PD-L1 (human) (UniProt Q9NZQ7); assay: flow cytometry; PD-L1 MFI over CD28 MFI of the same protein
Target sequence in this assay (Q9NZQ7 19-290): as the sequence (Q9NZQ7 19-290 limits assumed) above

human PD-L1 (human) [14] = biological target: human PD-L1 (human) (UniProt Q9NZQ7); assay: flow cytometry, CHO cells expressing huPD-L1
Target sequence in this assay (Q9NZQ7 19-290): as the sequence (Q9NZQ7 19-290 limits assumed) above

human PD-L1 (human) [15] = biological target: human PD-L1 (human) (UniProt Q9NZQ7); assay: flow cytometry, CHO/huPD-L1 cells; vs WT CD80 ECD-Fc (Abcam)
Target sequence in this assay (Q9NZQ7 19-290): as the sequence (Q9NZQ7 19-290 limits assumed) above

CD28 (human) [16] = biological target: CD28 (human) (UniProt P10747); assay: flow cytometry, Jurkat cells (CD28); vs WT CD80 ECD-Fc (Abcam)

Chain of human PD-L1 (huPD-L1), on stably transduced CHO cells (human) (Q9NZQ7 19-290): as the sequence (Q9NZQ7 19-290 limits assumed) above
Chain of human CTLA-4 (huCTLA4), on stably transduced CHO cells (human) (P16410 36-223): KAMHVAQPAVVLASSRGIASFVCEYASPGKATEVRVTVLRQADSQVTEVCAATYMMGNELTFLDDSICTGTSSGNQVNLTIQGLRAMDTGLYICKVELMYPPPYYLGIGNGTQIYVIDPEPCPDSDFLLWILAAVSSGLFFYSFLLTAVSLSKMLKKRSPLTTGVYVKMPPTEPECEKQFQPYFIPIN
Chain of human CTLA-4 (human) (P16410 36-223): as above

Binder	MFI at 33.3 nM [1] [MFI]	Fold change to WT CD80 [2] [fold]	Fold change to WT CD80 [3] [fold]	MFI at 33.3 nM [4] [MFI]	Fold change to WT CD80 [5] [fold]	Ratio of PDL1:CD28 [6]	MFI at 33.3 nM [7] [MFI]	Fold change to WT CD80 (human CTLA-4 (human) [8]) [fold]	MFI at 33.3 nM (human CTLA-4 (human) [9]) [MFI]	IL-2 luciferase reporter, fold increase over WT CD80-IgV-Fc at 5.0 nM (CD28 (human) [10]) [fold]	IL-2 luciferase reporter, fold increase over WT CD80-IgV-Fc at 5.0 nM (human PD-L1 (human) [11]) [fold]	MFI at 33.3 nM (CD28 (human) [12]) [MFI]	Ratio of PDL1:CD28 (human PD-L1 (human) [13])	MFI at 33.3 nM (human PD-L1 (human) [14]) [MFI]	Fold change to WT CD80 (human PD-L1 (human) [15]) [fold]	Fold change to WT CD80 (CD28 (human) [16]) [fold]
B1	528	108	8	24200	12.6	14	7580									
B2	461	41.7	7	20900	10.9	6	2940	1.1	44600	4.7	4.7	501	13.6	6800	53.1	0.7
B3	199	118	3	16600	8.7	42	8310									
B4	1000	53.9	15.2	21400	11.2	4	3790									
B5	756	48.7	11.5	27500	14.4	5	3420									
B6	164	41	2.5	30300	15.8	18	2880									
B7	779	53.4	11.8	27900	14.6	5	3760									
B8	230	38.5	3.5	27900	14.6	12	2700									
B9								0.8	33300	3.9	3.9	68.7	33.7	2320	18.1	0.1
B10								0.5	21800	2.5	2.5	236	3.2	757	5.9	0.3
B11								0.2	7280	4.8	4.8	328	13.1	4290	33.5	0.5
B12								1	39300	5.8	5.8	507	8.6	4340	33.9	0.7
B13								0.9	34600	5.8	5.8	641	22.6	14500	113	0.9
B14								0.6	23900	6.1	6.1	1080	23.9	25900	203	1.5
B15								0.9	36500	8.5	8.5	331	79.4	26300	205	0.5
B16								0.6	26100	7.9	7.9	118	88.8	10500	81.9	0.2
B17								0.7	30300	7.4	7.4	246	49.1	12100	94.4	0.3
